# Laboratory results taken from patent US20190177437A1 (SINGH MOLECULAR MEDICINE, published 2019).
# Assays:
# [1] = target: T1, active human TNF-α full length protein (human, UniProt P01375 77-233); assay: ELISA, TNF coat 0.5 µg/mL, sdAb 1 µg/mL, anti-llama 1:5,000, HRP 1:25,000
# [2] = target: T1, active human TNF-α full length protein; assay: ELISA, TNF coat 0.5 µg/mL, sdAb 1 µg/mL, anti-llama 1:5,000, HRP 1:50,000
# [3] = target: T1, active human TNF-α full length protein; assay: ELISA, TNF coat 0.25 µg/mL, sdAb 1 µg/mL, anti-llama 1:5,000, HRP 1:25,000
# [4] = target: T1, active human TNF-α full length protein; assay: ELISA, TNF coat 0.25 µg/mL, sdAb 1 µg/mL, anti-llama 1:5,000, HRP 1:50,000
# [5] = target: T1, active human TNF-α full length protein; assay: ELISA, TNF coat 0.5 µg/mL, sdAb 1 µg/mL, anti-llama 1:10,000, HRP 1:25,000
# [6] = target: T1, active human TNF-α full length protein; assay: ELISA, TNF coat 0.5 µg/mL, sdAb 1 µg/mL, anti-llama 1:10,000, HRP 1:50,000
# [7] = target: T1, active human TNF-α full length protein; assay: ELISA, TNF coat 0.125 µg/mL, sdAb 1 µg/mL, anti-llama 1:5,000, HRP 1:25,000
# [8] = target: T1, active human TNF-α full length protein; assay: ELISA, TNF coat 0.125 µg/mL, sdAb 1 µg/mL, anti-llama 1:5,000, HRP 1:50,000
# [9] = target: T1, active human TNF-α full length protein; assay: ELISA, TNF coat 0.25 µg/mL, sdAb 1 µg/mL, anti-llama 1:10,000, HRP 1:25,000
# [10] = target: T1, active human TNF-α full length protein; assay: ELISA, TNF coat 0.25 µg/mL, sdAb 1 µg/mL, anti-llama 1:10,000, HRP 1:50,000
# [11] = target: T1, active human TNF-α full length protein; assay: ELISA, TNF coat 0.125 µg/mL, sdAb 1 µg/mL, anti-llama 1:10,000, HRP 1:25,000
# [12] = target: T1, active human TNF-α full length protein; assay: ELISA, TNF coat 0.125 µg/mL, sdAb 1 µg/mL, anti-llama 1:10,000, HRP 1:50,000
# [13] = target: T1, active human TNF-α full length protein
# T1 sequence (P01375 77-233 limits assumed): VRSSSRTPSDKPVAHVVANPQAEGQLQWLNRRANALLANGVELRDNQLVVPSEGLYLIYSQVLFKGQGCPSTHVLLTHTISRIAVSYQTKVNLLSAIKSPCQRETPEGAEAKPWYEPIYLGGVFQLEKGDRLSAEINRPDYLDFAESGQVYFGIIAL
binder,measurement,setting,value
anti-TNF-α VHH69 (SEQ ID NO:46) sdAb (VHH) VHH: EVQLVESGGGSVLAGGSLRLSCVASGFTSRYNYMAWFRQAPGKEREGVATIGTASGSADYYGSVKDRFTISQDNAKNTVYLQMNSLKPEDTAMYYCAARTYGTISLTPSDYRYWGQGTLVTVSS,Signal/Noise Ratio,[1],8 ratio
same,Signal/Noise Ratio,[2],7.5 ratio
same,Signal/Noise Ratio,[3],3.2 ratio
same,Signal/Noise Ratio,[4],2.4 ratio
same,Signal/Noise Ratio,[5],5.9 ratio
same,Signal/Noise Ratio,[6],3.7 ratio
same,Signal/Noise Ratio,[7],1.6 ratio
same,Signal/Noise Ratio,[8],1.6 ratio
same,Signal/Noise Ratio,[9],2.1 ratio
same,Signal/Noise Ratio,[10],1.9 ratio
same,Signal/Noise Ratio,[11],1.5 ratio
same,Signal/Noise Ratio,[12],1.3 ratio
anti-TNF-α VHH62 (SEQ ID NO:47) sdAb (VHH) VHH: QVQLVESGGGPVQAGETLRLSCTASGFTFAEADMGWYRQAPGHECELVSTITTEGITSEASSYYADSVRGRFTISRDNAKNMVYLQMNSLKPEDTAVYYCAPDPYAYSTYSDYCSWAQGTQGTLVTVSS,Signal/Noise Ratio,[1],2 ratio
same,Signal/Noise Ratio,[2],1.9 ratio
same,Signal/Noise Ratio,[3],1.5 ratio
same,Signal/Noise Ratio,[4],1.4 ratio
same,Signal/Noise Ratio,[5],1.7 ratio
same,Signal/Noise Ratio,[6],1.5 ratio
same,Signal/Noise Ratio,[7],1.1 ratio
same,Signal/Noise Ratio,[8],1.1 ratio
same,Signal/Noise Ratio,[9],1.4 ratio
same,Signal/Noise Ratio,[10],1.3 ratio
same,Signal/Noise Ratio,[11],1.1 ratio
same,Signal/Noise Ratio,[12],0.9 ratio
same,binding result,[13],no binding (tested: 1 µg/mL)
